Laboratory results taken from article PMC10624354 (Science Advances, 2023).

T1: PIF4-NLuc (Arabidopsis, UniProt Q8W2F3 1-430)
T1 sequence (looked up): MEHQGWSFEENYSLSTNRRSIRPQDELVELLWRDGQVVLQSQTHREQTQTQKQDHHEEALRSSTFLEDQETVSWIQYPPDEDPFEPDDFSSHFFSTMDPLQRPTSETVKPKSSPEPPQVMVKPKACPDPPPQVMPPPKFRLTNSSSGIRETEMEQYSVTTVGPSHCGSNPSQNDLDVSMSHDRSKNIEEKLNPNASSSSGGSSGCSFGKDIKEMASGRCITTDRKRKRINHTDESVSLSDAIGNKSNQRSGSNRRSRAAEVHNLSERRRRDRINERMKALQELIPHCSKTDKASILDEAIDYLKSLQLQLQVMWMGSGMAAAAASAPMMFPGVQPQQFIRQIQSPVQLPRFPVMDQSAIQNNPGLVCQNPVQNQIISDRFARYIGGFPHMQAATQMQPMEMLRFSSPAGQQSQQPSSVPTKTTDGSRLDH

B1: HIS-tagged PIF4 (natural protein, Arabidopsis, UniProt Q8W2F3 1-430, looked up)
chain: T1 sequence (looked up)
B2: MBP-HSFA1d-S1 (DNA binding domain, amino acids 1 to 144) (domain or fragment)
chain: not shown
B3: MBP-HSFA1d-S2 (oligomerization domain HR-A/B and NLS, amino acids 145 to 260) (domain or fragment, Arabidopsis, UniProt Q9LQM7 145-260, looked up)
chain: GQNSSVSACVEVGKFGLEEEVERLKRDKNVLMQELVRLRQQQQSTDNQLQTMVQRLQGMENRQQQLMSFLAKAVQSPHFLSQFLQQQNQQNESNRRISDTSKKRRFKRDGIVRNND
B4: HSFA1d-CLuc (natural protein)
chain: not shown

What was measured:
[1] = molecular target: MBP-tagged HSFA1d (Arabidopsis, UniProt Q9LQM7 1-485); experiment: pull-down
Sequence of MBP-tagged HSFA1d (Q9LQM7 whole entry): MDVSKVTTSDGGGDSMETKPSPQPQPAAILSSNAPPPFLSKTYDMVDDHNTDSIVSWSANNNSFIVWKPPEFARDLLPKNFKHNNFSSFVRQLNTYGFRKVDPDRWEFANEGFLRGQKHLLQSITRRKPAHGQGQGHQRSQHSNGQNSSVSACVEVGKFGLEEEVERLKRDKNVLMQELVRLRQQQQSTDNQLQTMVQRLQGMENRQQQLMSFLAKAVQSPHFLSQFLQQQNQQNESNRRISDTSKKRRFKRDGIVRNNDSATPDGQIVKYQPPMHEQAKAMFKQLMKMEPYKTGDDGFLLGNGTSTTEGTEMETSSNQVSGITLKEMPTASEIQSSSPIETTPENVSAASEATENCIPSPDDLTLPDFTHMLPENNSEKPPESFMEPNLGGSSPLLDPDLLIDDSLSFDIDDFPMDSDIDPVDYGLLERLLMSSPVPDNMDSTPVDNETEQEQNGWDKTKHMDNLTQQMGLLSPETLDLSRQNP

[2] = molecular target: B1; experiment: pull-down
[3] = molecular target: T1, PIF4-NLuc; experiment: split reporter

Row | binding result [2] | Binder | also measured
1 |  | B1 | binding result [1]: binds
2 | binds | B2 | 
3 | binds | B3 | 
4 |  | B4 | fold increase of luciferase activity at 28°C against 21°C [3]: ~60 fold
